The test system of the data set is N[C@@H](CCC(=O)N[C@H]1CSSC[C@H](NC(=O)CC[C@H](N)C(=O)O)C(=O)NCC(=O)NCCCNCCCCNC(=O)CNC1=O)C(=O)O. As to the kind of experiment: purified protein, by the assay type. The conditions noted are these: pH 7.4, 25.0 °C.

Broadly, the Km is the substrate concentration at which the rate is half of its maximum.

In the case of “TbTryR (recombinant T. b. brucei trypanothione reductase) (Trypanosoma brucei brucei TREU927)”, the Km (other: saturating NADPH) was 2.35 ± 0.07 µM. In the case of “TbTryR (Trypanosoma brucei brucei TREU927)”, for the setting “other: 340 nm assay”, the Km amounted to 6.9 ± 0.7 µM.
